In paper PMC8519809 (Cell Reports, 2021):

Target: SARS-CoV-1 S-2P protein (SARS-CoV-1 (human SARS coronavirus); …, stabilised)
Assay: SPR

B1: Fab22 (Fab, V domains shown)
VH: EVQLQQPGPVLVKPGASVRMSCKASGYRITDNFMNWVKQSHGKSLEWIGIINPYNGGTKYNQKFKGKATLTVDTSSSTAYMELNSLTSEDSAVYYCTRVRGNDYHGRAMDYWGQGTSVTVSS
VL: DVVLTQTPLSLPVNIGDQASISCKSTKSLLNRDGFTFLDWYLQKPGQSPQLLIYLVSNRFSGVPDRFSGSGSGTDFTLKISRVEAEDLGVYYCFQSNYLFTFGSGTKLEIK
  Kd: 7.2 nM
